17 molecules from paper PMC11417369, “DNA sequence and chromatin differentiate sequence-specific transcription factor binding in the human malaria parasite Plasmodium falciparum” can be followed below.

B1: CACACA_site2012 (dsDNA)
DNA 1: AATATGAACAGACACACACACACAAAAAAAAAAAAA
DNA 2: TTTTTTTTTTTTTGTGTGTGTGTGTCTGTTCATATT
B2: CACACA_site5152 (dsDNA)
DNA 1: GTATAATATGAACACACACACACACCCAAAAAAAAA
DNA 2: TTTTTTTTTGGGTGTGTGTGTGTGTTCATATTATAC
B3: CACACA_site372 (dsDNA)
DNA 1: AAGCATACATCAAGCACACACACACCCACACCCACA
DNA 2: TGTGGGTGTGGGTGTGTGTGTGCTTGATGTATGCTT
B4: CACACA_site4435 (dsDNA)
DNA 1: TACACAGACGGACACACACACACACTAGAAAAAAAA
DNA 2: TTTTTTTTCTAGTGTGTGTGTGTGTCCGTCTGTGTA
B5: CACACA_site8718 (dsDNA)
DNA 1: ATAATTTGTGGACACACACACACACCGACATATATA
DNA 2: TATATATGTCGGTGTGTGTGTGTGTCCACAAATTAT
B6: CACACA_site6093 (dsDNA)
DNA 1: TATATAAATGGACACACACACACCTTATAATTATTA
DNA 2: TAATAATTATAAGGTGTGTGTGTGTCCATTTATATA
B7: CACACA_site4441 (dsDNA)
DNA 1: CAAATACCCGGACACACACACACAAAAAAAAAAAAA
DNA 2: TTTTTTTTTTTTTGTGTGTGTGTGTCCGGGTATTTG
B8: CACACA_site6643 (dsDNA)
DNA 1: AACATACACATATACACACACACATATATACCTATA
DNA 2: TATAGGTATATATGTGTGTGTGTATATGTGTATGTT
B9: CACACA_site6991 (dsDNA)
DNA 1: ACAGAAAAAAGACACACACACATAATATACATACAT
DNA 2: ATGTATGTATATTATGTGTGTGTGTCTTTTTTCTGT
B10: CACACA_site903 (dsDNA)
DNA 1: CCATAAAAAGGATACACACACACACCCACATATATA
DNA 2: TATATATGTGGGTGTGTGTGTGTATCCTTTTTATGG
B11: CACACA_site904 (dsDNA)
DNA 1: ATAAAAAGGAAACACACACACACACCCATATATATA
DNA 2: TATATATATGGGTGTGTGTGTGTGTTTCCTTTTTAT
B12: CACACA_site6714 (dsDNA)
DNA 1: ATAATACACAAGCACACACACACACGGATATTTATA
DNA 2: TATAAATATCCGTGTGTGTGTGTGCTTGTGTATTAT
B13: CACACA_site6495 (dsDNA)
DNA 1: TTAAACTTGAGACACACACACACACGGATATAAAAA
DNA 2: TTTTTATATCCGTGTGTGTGTGTGTCTCAAGTTTAA
B14: CACACA_site4909 (dsDNA)
DNA 1: AAAAAATCAAAACACACACACACACTAGAAAAAAAA
DNA 2: TTTTTTTTCTAGTGTGTGTGTGTGTTTTGATTTTTT
B15: CACACA_site1444 (dsDNA)
DNA 1: AAAAAATCAAAACACACACACACACCCAAAAAAAAA
DNA 2: TTTTTTTTTGGGTGTGTGTGTGTGTTTTGATTTTTT
B16: CACACA_site4551 (dsDNA)
DNA 1: AAAAAAAAAAAACACACACACACACTAGTACATACA
DNA 2: TGTATGTACTAGTGTGTGTGTGTGTTTTTTTTTTTT
B17: CACACA_site4189 (dsDNA)
DNA 1: AAAAAAAACGGACACACACACATTCAATATAAAACA
DNA 2: TGTTTTATATTGAATGTGTGTGTGTCCGTTTTTTTT

The series addresses T1, AP2-HC D1 (Plasmodium falciparum, UniProt Q8IKR9 1316-1374).
T1 sequence: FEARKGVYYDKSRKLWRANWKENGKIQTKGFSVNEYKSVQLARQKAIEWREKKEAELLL
Kind of series: gcPBM; about 25 ug protein; PBS, 1% milk, 0.2 mg/ml BSA, salmon testes DNA, 0.03% Triton X-100. Conditions: tags: N-terminal GST (pGEX-4T-1), kept; label: surface-attached array probe.
On to B1, for which the binding signal was 11.8 ln median PBM intensity, better of two orientations.
As for B2, the figure is 11.9 ln median PBM intensity, better of two orientations; as for B3, 11.9 ln median PBM intensity, better of two orientations; as for B4, 11.9 ln median PBM intensity, better of two orientations.
As for B5, the figure is 11.8 ln median PBM intensity, better of two orientations.
As for B6, the figure is 11.9 ln median PBM intensity, better of two orientations; as for B7, 11.9 ln median PBM intensity, better of two orientations.
B8: the binding signal was 11.9 ln median PBM intensity, better of two orientations.
Turning to B9, the binding signal is 11.8 ln median PBM intensity, better of two orientations.
As for B10, the figure is 11.9 ln median PBM intensity, better of two orientations; as for B11, 11.9 ln median PBM intensity, better of two orientations.
With B12 the figure was 11.8 ln median PBM intensity, better of two orientations; with B13, 11.8 ln median PBM intensity, better of two orientations.
With B14 the figure was 11.8 ln median PBM intensity, better of two orientations; with B15, 11.8 ln median PBM intensity, better of two orientations.
In the case of B16, the binding signal is 11.8 ln median PBM intensity, better of two orientations.
With B17 the figure was 11.8 ln median PBM intensity, better of two orientations.
